# Where two headings read alike, the source gives them in different places.
# B1: A-PC (Fc fusion)
# chain (part 1 of 2): EVQLVESGGGLVQPGGSLRLSCAASGLTFSDYSMSWYRQAPGKGRELVAIISGSGVITHYVDSVKGRFTISRDNAKNTLYLQMRSLRAEDTAVYYCRAVSDWEDYWGQGTQVTVSS
# chain (part 2 of 2): GGGGSGGGGSGGGGSAPASSSTKKTQLQLEHLLLDLQMILQGISNYKNPKLTRMLTAKFYMPKKATELKHLQCLEEELKPLEEVLQGAQSKNFHLRPRDLISNINVIVLELKGSETTFMCEYADETATIVEFLNRWITFAQSIISTLT
# chain: EVQLVESGGGLVQPGGSLRLSCAASGLTFSDYSMSWYRQAPGKGRELVAIISGSGVITHYVDSVKGRFTISRDNAKNTLYLQMRSLRAEDTAVYYCRAVSDWEDYWGQGTQVTVSS
# notes: also called positive control molecule A-PC; PD-1-IL-2v; not shown: IgG1 hinge (C220S) + Fc Knob chain (L234A, L235A, S354C, T366W, EU); D356/L358 or E356/M358 ver; IgG1 hinge (C220S) + Fc Hole chain (L234A, L235A, Y349C, T366S, L368A, Y407V; may have H435R, Y436F; EU)
# B2: A17_hIgG4 (antibody, V domains shown)
# VH: EVQVVESGGGLVQPGGSLRLSCVASGLTFSDYSMSWYRQAPGKERELVAIISGSGVIAHYVDSVKGRFTISRDNAKSTVYLQMVSLKPEDRGVYYCRAVSDWDDYWGQGTQVTVSS
# Assays:
# human PD-1 [1] = molecular target: T1, human PD-1 (human, UniProt Q15116 25-288); assay: cell-based or functional assay
# T1 sequence (Q15116 25-288 limits assumed): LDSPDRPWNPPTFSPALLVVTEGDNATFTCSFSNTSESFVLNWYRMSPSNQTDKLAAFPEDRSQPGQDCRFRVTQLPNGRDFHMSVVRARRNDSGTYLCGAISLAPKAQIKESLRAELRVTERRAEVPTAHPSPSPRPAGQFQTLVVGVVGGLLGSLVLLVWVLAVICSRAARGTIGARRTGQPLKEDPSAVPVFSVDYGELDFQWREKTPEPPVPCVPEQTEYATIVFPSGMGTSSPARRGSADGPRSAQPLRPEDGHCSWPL
# IL-2Rβ/γ on M07e cells = molecular target: T2, IL-2Rβ/γ on M07e cells (human, UniProt P14784 27-551; P31785 23-369); assay: cell-based or functional assay
# T2 sequence (looked up) 1: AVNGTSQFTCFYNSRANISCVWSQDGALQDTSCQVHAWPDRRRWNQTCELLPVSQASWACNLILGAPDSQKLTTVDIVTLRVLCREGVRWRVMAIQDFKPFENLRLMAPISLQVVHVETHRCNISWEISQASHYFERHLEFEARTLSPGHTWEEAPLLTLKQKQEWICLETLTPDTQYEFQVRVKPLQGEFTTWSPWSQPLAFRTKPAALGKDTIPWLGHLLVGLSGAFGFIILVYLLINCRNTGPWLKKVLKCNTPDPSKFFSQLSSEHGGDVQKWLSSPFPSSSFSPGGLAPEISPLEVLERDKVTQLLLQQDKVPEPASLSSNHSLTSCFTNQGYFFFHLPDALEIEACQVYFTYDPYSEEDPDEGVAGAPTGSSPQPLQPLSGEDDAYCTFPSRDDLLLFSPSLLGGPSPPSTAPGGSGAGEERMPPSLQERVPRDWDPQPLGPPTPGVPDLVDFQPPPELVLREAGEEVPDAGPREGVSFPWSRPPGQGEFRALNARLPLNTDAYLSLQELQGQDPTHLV
# T2 sequence (looked up) 2: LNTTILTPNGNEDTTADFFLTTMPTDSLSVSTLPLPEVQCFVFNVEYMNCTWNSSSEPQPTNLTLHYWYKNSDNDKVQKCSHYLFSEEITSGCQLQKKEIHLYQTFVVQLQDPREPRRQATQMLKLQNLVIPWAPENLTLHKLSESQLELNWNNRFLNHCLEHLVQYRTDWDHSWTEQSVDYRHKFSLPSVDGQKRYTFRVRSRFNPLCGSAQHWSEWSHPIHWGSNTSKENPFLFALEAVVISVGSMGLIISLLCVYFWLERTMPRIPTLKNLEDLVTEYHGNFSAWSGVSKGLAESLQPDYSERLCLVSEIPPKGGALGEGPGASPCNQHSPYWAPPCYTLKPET
# human PD-1 [2] = molecular target: T1, human PD-1; assay: cell-based or functional assay; remark: listed apart in the source
# [3] = molecular target: T3, human IL-2Rβ/γ receptor heterodimer protein (Acrosystem, ILG-H5283) (human, UniProt P14784 27-239; P31785 23-262, limits assumed); assay: SPR Biacore 8K, fusion protein captured by anti-human IgG (Fc), human IL-2Rβ/γ heterodimer as analyte
# T3 sequence (looked up) 1: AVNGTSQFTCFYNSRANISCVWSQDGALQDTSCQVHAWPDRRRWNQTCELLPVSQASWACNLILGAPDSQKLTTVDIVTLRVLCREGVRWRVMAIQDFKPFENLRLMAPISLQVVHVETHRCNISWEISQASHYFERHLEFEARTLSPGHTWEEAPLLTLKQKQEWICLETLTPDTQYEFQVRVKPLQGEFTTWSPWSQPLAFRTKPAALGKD
# T3 sequence (looked up) 2: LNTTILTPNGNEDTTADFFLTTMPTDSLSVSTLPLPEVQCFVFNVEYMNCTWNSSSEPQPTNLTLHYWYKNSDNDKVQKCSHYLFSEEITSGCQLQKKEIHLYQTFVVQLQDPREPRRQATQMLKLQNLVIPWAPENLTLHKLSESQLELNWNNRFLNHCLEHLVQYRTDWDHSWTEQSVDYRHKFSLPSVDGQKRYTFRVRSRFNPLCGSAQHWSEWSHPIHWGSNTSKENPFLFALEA
# [4] = molecular target: Human PD-1 antigen protein (Sino Biological, 10377-H08H) (human, UniProt Q15116 25-167); assay: SPR Biacore 8K, fusion protein captured by anti-human IgG (Fc), human PD-1 as analyte
# Chain of Human PD-1 antigen protein (Sino Biological, 10377-H08H) (Q15116 25-167 limits assumed): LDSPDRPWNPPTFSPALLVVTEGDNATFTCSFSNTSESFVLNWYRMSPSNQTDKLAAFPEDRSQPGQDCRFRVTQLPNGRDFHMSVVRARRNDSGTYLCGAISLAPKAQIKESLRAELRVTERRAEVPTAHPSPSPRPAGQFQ
# [5] = molecular target: T4, human IL-2Rα receptor protein (Sino Biological, 10165-H08H) (human, UniProt P01589 22-213); assay: SPR Biacore 8K, fusion protein captured by anti-human IgG (Fc), IL-2Rα as analyte
# T4 construct: also called CD25
# T4 sequence (looked up): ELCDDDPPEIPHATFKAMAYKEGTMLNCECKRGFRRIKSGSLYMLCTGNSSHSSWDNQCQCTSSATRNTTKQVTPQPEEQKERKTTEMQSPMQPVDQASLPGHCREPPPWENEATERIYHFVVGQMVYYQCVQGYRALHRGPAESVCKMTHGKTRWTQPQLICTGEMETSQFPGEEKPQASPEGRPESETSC
# human PD-1 [6] = molecular target: T1, human PD-1; assay: cell-based or functional assay; remark: listed apart in the source
# human PD-1 [7] = molecular target: T1, human PD-1; assay: flow cytometry on Jurkat cells overexpressing human PD-1
# human PD-1 [8] = molecular target: T1, human PD-1; assay: cell-based or functional assay; remark: listed apart in the source
# [9] = molecular target: T5, Human PD-1 protein (His Tag) (human, UniProt Q15116 25-167); assay: ELISA, plate coated with human PD-1 (his tag), anti-human IgG4 Fc-HRP
# T5 construct: also called PD1-H5221; PD-1 antigen; not shown: His tag
# T5 sequence (Q15116 25-167): as the sequence (Q15116 25-167 limits assumed) above
binder,measurement,setting,value
B1,M07e-hPD-1 cell proliferation ratio (%) at 0.0001 nM,human PD-1 [1],2.4%
same,M07e-hPD-1 cell proliferation ratio (%) at 0.001 nM,human PD-1 [1],4.9%
same,M07e-hPD-1 cell proliferation ratio (%) at 0.01 nM,human PD-1 [1],33.7%
same,M07e-hPD-1 cell proliferation ratio (%) at 0.1 nM,human PD-1 [1],79%
same,M07e-hPD-1 cell proliferation ratio (%) at 1 nM,human PD-1 [1],95.9%
same,M07e-hPD-1 cell proliferation ratio (%) at 10 nM,human PD-1 [1],113%
same,M07e-hPD-1 cell proliferation ratio (%) at 100 nM,human PD-1 [1],112%
same,M07e-hPD-1 cell proliferation ratio (%) at 1000 nM,human PD-1 [1],100%
same,M07e cell proliferation activity (%) at 0.46 nM,IL-2Rβ/γ on M07e cells,0.1%
same,M07e cell proliferation activity (%) at 1.4 nM,IL-2Rβ/γ on M07e cells,3.6%
same,M07e cell proliferation activity (%) at 4.1 nM,IL-2Rβ/γ on M07e cells,28.1%
same,M07e cell proliferation activity (%) at 12 nM,IL-2Rβ/γ on M07e cells,41.6%
same,M07e cell proliferation activity (%) at 37 nM,IL-2Rβ/γ on M07e cells,71.7%
same,M07e cell proliferation activity (%) at 111 nM,IL-2Rβ/γ on M07e cells,87.2%
same,M07e cell proliferation activity (%) at 333 nM,IL-2Rβ/γ on M07e cells,89.8%
same,M07e cell proliferation activity (%) at 1000 nM,IL-2Rβ/γ on M07e cells,100%
same,M07e-hPD-1 cell proliferation activity (%) at 0.0001 nM,human PD-1 [2],1%
same,M07e-hPD-1 cell proliferation activity (%) at 0.001 nM,human PD-1 [2],3%
same,M07e-hPD-1 cell proliferation activity (%) at 0.01 nM,human PD-1 [2],28%
same,M07e-hPD-1 cell proliferation activity (%) at 0.1 nM,human PD-1 [2],87%
same,M07e-hPD-1 cell proliferation activity (%) at 1 nM,human PD-1 [2],99%
same,M07e-hPD-1 cell proliferation activity (%) at 10 nM,human PD-1 [2],98%
same,M07e-hPD-1 cell proliferation activity (%) at 100 nM,human PD-1 [2],102%
same,M07e-hPD-1 cell proliferation activity (%) at 1000 nM,human PD-1 [2],100%
same,Kd,[3],253 pM
same,koff,[3],2.23e-05 s⁻¹
same,kon,[3],88100 M⁻¹ s⁻¹
same,Kd,[4],19400 pM
same,koff,[4],0.00182 s⁻¹
same,kon,[4],93700 M⁻¹ s⁻¹
same,binding result,[5],no binding
same,M07e-hPD-1 cell proliferation ratio (%) at 0.0001 nM,human PD-1 [6],4%
same,M07e-hPD-1 cell proliferation ratio (%) at 0.001 nM,human PD-1 [6],8.1%
same,M07e-hPD-1 cell proliferation ratio (%) at 0.01 nM,human PD-1 [6],29.3%
same,M07e-hPD-1 cell proliferation ratio (%) at 0.1 nM,human PD-1 [6],99.5%
same,M07e-hPD-1 cell proliferation ratio (%) at 1 nM,human PD-1 [6],112%
same,M07e-hPD-1 cell proliferation ratio (%) at 10 nM,human PD-1 [6],107%
same,M07e-hPD-1 cell proliferation ratio (%) at 100 nM,human PD-1 [6],105%
same,M07e-hPD-1 cell proliferation ratio (%) at 1000 nM,human PD-1 [6],100%
B2,EC50,human PD-1 [7],357 pM
same,"IC50, PD-1/PD-L1 NFAT reporter gene system",human PD-1 [8],1200 pM
same,EC50,[9],61 pM

# — patent EP4477673A1, “IMMUNOCONJUGATE AND USE THEREOF” (priority 2022, dated 2023)
